In paper PMC11797056, “The ATPase activity of yeast chromosome axis protein Hop1 affects the frequency of meiotic crossovers” (Nucleic Acids Research, 2024):

T1: Hop1 K65A,N67Q (Saccharomyces cerevisiae, UniProt P20050 1-605, K65A;N67Q)
T1 sequence: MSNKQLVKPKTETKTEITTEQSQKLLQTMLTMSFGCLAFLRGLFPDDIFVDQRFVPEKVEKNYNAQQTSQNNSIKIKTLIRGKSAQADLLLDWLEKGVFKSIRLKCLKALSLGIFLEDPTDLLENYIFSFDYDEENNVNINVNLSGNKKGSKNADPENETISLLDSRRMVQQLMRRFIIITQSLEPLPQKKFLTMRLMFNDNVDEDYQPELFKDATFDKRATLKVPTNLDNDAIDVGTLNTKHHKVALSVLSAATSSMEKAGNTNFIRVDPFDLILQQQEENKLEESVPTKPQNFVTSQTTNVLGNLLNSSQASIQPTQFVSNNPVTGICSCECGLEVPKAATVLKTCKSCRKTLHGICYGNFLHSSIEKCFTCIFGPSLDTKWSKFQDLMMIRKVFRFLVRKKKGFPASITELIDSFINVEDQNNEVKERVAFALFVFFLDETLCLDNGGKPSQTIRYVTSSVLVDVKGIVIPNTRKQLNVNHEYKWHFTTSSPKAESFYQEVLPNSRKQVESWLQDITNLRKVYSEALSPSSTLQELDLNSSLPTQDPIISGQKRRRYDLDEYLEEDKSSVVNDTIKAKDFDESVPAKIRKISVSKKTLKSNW

B1: Holliday junction (HJ), 6-FAM (structured_DNA)
DNA 1: GACGCTGCCGAATTCTACCAGTGCCTTGCTAGGACATCTTTGCCCACCTGCCGGTTCACCC
DNA 2: TGGGTGAACCTGCAGGTGGGCAAAGATGTCCTAGCAATGTAATCGTCAAAGCTTTATGCCGTT
DNA 3: CAACGGCATAAAGCTTGACGATTACATTGCTAGGACATGCTGTCTAGAGGATCCGACTATCGA
DNA 4: ATCGATAGTCGGATCCTCTAGACAGCATGTCCTAGCAAGGCACTGGTAGAATTCGGCAGCGT
B2: Holliday junction (HJ), 32P (structured_DNA)
DNA 1: B1 DNA 1
DNA 2: B1 DNA 2
DNA 3: B1 DNA 3
DNA 4: B1 DNA 4

Tests used:
Hop1 K65A,N67Q [1] = target: T1, Hop1 K65A,N67Q; test: MST; 25 nM HJ; EMSA: 25 mM HEPES pH 7.5, 0.5 nM 32P-HJ, 37 C 15 min, 8% PAGE in TBE (25 mM Tris base pH 8.0, 25 mM boric acid, 0.5 mM EDTA) at 4 C; MST: 25 nM 6-FAM HJ, buffer not in material; conditions: protein: recombinant; tags: His6 (pET28a); label: 5'-6FAM on HJ02; four-way junction of 4 strands
Hop1 K65A,N67Q [2] = target: T1, Hop1 K65A,N67Q; test: EMSA; 0.5 nM HJ; EMSA: 25 mM HEPES pH 7.5, 0.5 nM 32P-HJ, 37 C 15 min, 8% PAGE in TBE (25 mM Tris base pH 8.0, 25 mM boric acid, 0.5 mM EDTA) at 4 C; MST: 25 nM 6-FAM HJ, buffer not in material; conditions: protein: recombinant; tags: His6 (pET28a); label: 5'-32P on HJ02; four-way junction of 4 strands

Binder	Kd (Hop1 K65A,N67Q [1]) [nM]	binding signal (Hop1 K65A,N67Q [2])
B1	495	
B2		~1.7 fold lower affinity than WT
